# What was measured:
# [1] = biological target: EPHB1 (UniProt P54762); assay: phosphorylation enrichment, bacterial display (enrichment ratio); higher = better substrate or ligand; peptides without Tyr show the background
# [2] = biological target: Fes (UniProt P07332); assay: as above
# [3] = tested on: c-Abl (mouse); assay: as above
# [4] = biological target: EPHB2 (UniProt P29323); assay: as above
# [5] = tested on: AncSZ; assay: as above
# [6] = biological target: FGFR1 (UniProt P11362); assay: as above
# [7] = biological target: FGFR3 (UniProt P22607); assay: as above
# [8] = tested on: c-Src; assay: as above
# [9] = tested on: Fer (mouse); assay: as above
# [10] = biological target: MERTK (UniProt Q12866); assay: as above
# [11] = biological target: Hck (UniProt P08631); assay: as above
# [12] = biological target: Fyn (UniProt P06241); assay: as above
# [13] = biological target: Jak2 (UniProt O60674); assay: as above
# [14] = biological target: c-Src SH2; assay: SH2 binding enrichment of the phosphorylated peptide, bacterial display (enrichment ratio); higher = better substrate or ligand; peptides without Tyr show the background
# [15] = biological target: SHP2-C SH2; assay: as above
# [16] = biological target: Grb2 SH2 (UniProt P62993); assay: as above
# 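Wherever SH2 binding enrichment of the phosphorylated peptide, bacterial display is given: peptide library displayed on the E. coli surface as eCPX fusions, selected cells deep-sequenced, score is each peptide's frequency after selection divided by its frequency in the input.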
# 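Wherever phosphorylation enrichment, bacterial display is given: 11-residue human phosphosite peptides and single-mutation variants displayed on the E. coli surface, counted by deep sequencing, each peptide's frequency after selection divided by its frequency in the unselected input library; frequency after pTyr selection over input frequency; kinase dosed for 20-30% of maximal phosphorylation in three min.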
# FGFR1, sequence (P11362 whole entry, looked up): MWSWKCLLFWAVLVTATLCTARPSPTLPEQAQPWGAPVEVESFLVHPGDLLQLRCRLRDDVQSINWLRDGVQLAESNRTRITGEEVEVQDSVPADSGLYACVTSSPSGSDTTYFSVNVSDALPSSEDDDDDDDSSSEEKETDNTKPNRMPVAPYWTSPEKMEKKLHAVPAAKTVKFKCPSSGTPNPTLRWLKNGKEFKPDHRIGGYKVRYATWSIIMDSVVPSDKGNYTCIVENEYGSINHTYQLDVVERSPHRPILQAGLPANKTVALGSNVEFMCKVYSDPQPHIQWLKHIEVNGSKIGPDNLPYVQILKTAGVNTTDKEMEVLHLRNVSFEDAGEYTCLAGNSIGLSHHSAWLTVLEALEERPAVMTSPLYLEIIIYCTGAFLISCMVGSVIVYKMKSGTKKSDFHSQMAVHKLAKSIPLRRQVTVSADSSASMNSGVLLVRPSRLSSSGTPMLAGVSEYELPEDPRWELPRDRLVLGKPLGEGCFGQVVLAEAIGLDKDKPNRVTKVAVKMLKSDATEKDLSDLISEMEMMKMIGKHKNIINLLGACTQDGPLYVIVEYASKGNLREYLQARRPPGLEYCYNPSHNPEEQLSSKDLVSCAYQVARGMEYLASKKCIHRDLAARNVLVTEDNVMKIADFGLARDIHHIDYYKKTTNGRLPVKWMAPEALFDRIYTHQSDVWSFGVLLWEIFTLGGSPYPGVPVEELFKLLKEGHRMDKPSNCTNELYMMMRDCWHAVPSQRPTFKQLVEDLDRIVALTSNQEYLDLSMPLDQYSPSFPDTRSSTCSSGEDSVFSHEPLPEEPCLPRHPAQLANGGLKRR
# Grb2 SH2, sequence (P62993 whole entry, looked up, the tested form may be a part): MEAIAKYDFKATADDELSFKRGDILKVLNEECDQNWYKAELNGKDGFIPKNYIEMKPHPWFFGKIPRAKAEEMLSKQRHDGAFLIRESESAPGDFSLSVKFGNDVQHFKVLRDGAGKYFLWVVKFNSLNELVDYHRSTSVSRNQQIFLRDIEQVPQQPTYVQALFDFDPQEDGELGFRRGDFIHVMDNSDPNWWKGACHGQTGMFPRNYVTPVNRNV
# EPHB1, sequence (P54762 whole entry, looked up): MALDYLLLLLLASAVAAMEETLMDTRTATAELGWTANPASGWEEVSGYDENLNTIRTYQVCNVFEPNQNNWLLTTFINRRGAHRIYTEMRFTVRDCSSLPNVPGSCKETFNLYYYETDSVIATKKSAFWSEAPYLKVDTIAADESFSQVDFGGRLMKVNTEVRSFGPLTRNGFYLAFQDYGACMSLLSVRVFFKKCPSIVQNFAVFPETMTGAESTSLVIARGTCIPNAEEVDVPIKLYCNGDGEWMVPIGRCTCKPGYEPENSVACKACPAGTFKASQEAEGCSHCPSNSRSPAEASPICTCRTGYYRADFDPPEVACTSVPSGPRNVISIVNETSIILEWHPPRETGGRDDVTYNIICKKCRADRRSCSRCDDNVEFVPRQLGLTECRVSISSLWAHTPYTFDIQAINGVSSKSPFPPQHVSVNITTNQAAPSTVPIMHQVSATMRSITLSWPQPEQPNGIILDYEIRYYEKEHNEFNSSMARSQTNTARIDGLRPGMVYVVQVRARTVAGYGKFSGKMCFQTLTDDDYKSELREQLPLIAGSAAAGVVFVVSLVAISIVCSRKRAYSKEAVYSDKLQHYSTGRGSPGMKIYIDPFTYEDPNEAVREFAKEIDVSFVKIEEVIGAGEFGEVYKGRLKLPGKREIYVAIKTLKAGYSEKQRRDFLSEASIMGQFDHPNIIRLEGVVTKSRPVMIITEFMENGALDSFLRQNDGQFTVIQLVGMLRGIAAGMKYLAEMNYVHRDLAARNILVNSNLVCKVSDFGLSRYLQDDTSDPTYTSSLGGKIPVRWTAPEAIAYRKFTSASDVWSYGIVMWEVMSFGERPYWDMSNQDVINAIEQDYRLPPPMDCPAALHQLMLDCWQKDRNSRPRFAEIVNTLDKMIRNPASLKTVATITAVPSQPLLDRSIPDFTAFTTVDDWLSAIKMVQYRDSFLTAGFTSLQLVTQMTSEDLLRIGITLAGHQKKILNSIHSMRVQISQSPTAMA
# Fyn, sequence (P06241 whole entry, looked up): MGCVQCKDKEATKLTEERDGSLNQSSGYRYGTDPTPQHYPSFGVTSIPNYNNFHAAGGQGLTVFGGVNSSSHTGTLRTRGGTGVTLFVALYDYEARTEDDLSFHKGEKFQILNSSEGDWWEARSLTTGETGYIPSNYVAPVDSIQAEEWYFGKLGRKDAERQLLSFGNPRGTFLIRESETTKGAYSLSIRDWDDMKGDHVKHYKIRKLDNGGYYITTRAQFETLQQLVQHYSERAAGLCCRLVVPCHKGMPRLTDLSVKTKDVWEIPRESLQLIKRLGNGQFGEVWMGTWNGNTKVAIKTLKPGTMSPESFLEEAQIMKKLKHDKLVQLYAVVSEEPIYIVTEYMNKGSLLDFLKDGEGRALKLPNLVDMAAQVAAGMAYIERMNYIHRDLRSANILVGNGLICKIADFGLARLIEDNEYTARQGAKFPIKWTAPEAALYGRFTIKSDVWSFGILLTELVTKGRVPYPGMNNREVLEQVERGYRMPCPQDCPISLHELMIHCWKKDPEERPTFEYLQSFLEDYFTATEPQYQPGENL
# FGFR3, sequence (P22607 whole entry, looked up): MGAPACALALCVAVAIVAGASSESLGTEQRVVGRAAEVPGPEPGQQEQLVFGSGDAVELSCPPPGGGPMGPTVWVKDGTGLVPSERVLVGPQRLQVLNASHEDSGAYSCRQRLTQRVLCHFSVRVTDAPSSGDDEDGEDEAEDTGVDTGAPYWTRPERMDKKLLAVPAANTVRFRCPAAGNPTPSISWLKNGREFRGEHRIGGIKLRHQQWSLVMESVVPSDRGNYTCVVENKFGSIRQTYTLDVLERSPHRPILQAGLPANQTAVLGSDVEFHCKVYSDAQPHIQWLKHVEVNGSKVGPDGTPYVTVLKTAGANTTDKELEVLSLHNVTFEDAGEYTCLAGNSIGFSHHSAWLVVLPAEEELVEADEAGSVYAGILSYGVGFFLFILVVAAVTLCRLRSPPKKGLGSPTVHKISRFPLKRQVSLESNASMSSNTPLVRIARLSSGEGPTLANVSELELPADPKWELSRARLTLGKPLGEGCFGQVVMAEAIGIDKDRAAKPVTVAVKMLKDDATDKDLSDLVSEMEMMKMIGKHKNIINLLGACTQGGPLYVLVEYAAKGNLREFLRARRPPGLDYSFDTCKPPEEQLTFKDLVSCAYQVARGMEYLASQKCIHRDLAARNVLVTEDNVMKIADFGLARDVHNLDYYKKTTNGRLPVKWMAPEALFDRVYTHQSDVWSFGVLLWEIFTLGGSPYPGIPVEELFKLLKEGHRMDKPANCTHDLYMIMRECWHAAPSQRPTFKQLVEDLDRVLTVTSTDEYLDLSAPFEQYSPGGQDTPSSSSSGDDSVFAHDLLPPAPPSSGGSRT
# Hck, sequence (P08631 whole entry, looked up): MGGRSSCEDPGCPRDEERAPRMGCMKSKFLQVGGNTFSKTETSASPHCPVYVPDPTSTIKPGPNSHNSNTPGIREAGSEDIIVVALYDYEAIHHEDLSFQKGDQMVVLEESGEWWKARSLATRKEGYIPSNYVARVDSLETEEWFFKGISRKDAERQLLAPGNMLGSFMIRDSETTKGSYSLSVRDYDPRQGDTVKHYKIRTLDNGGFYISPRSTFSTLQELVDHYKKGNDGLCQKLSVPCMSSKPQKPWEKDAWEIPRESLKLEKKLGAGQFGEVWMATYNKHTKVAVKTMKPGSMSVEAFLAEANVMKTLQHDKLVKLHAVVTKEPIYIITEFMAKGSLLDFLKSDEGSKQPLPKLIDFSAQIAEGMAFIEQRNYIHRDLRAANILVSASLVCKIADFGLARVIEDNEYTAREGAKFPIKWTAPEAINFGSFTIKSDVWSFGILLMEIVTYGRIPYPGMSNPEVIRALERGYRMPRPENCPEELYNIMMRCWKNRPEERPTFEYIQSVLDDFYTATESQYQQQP
# Jak2, sequence (O60674 whole entry, looked up): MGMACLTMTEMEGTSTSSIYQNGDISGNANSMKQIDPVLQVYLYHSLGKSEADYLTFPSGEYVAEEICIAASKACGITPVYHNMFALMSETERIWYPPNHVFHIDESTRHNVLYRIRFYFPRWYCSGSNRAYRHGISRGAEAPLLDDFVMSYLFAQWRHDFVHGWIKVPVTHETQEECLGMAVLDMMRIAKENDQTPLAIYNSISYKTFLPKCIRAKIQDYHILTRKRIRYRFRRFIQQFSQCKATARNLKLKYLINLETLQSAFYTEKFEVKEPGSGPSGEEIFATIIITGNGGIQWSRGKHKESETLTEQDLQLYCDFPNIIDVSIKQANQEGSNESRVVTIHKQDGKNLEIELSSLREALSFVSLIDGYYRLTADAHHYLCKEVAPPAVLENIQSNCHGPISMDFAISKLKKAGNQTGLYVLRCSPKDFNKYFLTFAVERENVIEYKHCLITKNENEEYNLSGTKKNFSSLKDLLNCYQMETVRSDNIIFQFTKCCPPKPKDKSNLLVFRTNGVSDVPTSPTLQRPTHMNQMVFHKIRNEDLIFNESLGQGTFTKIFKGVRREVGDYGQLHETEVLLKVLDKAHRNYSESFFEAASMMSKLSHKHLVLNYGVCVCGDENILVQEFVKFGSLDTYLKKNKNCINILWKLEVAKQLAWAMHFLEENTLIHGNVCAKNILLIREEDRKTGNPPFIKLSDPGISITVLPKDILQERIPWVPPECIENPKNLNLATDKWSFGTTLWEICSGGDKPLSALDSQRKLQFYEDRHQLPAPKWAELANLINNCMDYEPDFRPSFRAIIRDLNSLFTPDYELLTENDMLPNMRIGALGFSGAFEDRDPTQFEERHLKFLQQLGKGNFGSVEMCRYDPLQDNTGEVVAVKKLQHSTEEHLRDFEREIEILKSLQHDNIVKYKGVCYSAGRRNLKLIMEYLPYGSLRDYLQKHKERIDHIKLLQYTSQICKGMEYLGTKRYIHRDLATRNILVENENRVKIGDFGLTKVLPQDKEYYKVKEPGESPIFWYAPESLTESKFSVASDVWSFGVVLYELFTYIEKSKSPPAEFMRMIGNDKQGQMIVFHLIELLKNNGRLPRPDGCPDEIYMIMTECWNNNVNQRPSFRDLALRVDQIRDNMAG
Sequence,phosphorylation enrichment [1],phosphorylation enrichment [2],phosphorylation enrichment [3],phosphorylation enrichment [4],phosphorylation enrichment [5],phosphorylation enrichment [6],phosphorylation enrichment [7],phosphorylation enrichment [8],phosphorylation enrichment [9],phosphorylation enrichment [10],phosphorylation enrichment [11],phosphorylation enrichment [12],phosphorylation enrichment [13],SH2 binding enrichment [14],SH2 binding enrichment [15],SH2 binding enrichment [16]
VNTMLYEKFTF [TEK_Y1108_T1106M_YF],6.33,1.22,2.38,4.34,1.29,0.621,0.697,6.07,13.7,8.45,6.73,5.93,0.917,0.71,0.736,1.01
VNYQPYRKHKY [TEX37_Y28_D24N],0.367,0.498,0.688,0.444,0.578,0.419,0.501,0.537,0.41,0.351,0.451,0.352,0.409,0.568,0.771,0.777
VPFARYLAMNK [HARS1_Y138],0.379,0.516,0.328,0.43,0.432,0.388,0.442,0.362,0.334,0.376,0.381,0.382,0.361,0.576,0.561,0.739
VPLLEYFRDIF [CDAN1_Y712_YF],0.523,1.6,1.06,0.715,1.42,0.687,0.943,0.52,0.584,0.56,0.566,0.543,1.41,1.13,1.38,1.44
VQVAFYTVMMN [SPATA17_Y84_M86V_YF],1.17,1.44,1.07,0.737,1.18,0.643,0.959,0.71,0.677,1.84,0.605,0.567,1.36,0.632,0.69,0.815
VRFMAYTDETC [F8_Y450_F455C],0.649,1.3,0.973,0.59,1.11,0.544,0.773,0.413,0.522,0.431,0.662,0.403,1.05,0.627,1.03,0.83
VSAPEYGPKLK [TBC1D14_Y46_L41V],0.452,0.678,0.469,0.391,0.644,0.476,0.504,0.369,0.452,0.394,0.465,0.437,0.556,0.497,0.667,0.876
VVEDGYEFFAK [PPP1CB_Y254],0.473,0.988,0.574,0.792,1.41,0.518,0.615,0.504,0.42,0.392,0.491,0.571,1.01,1.08,0.856,0.984
VYLGAYDRFLP [SLC22A5_Y486],1.82,0.992,1.2,2.53,1.25,0.948,0.803,4.49,1.88,4.72,5.32,4.5,0.74,0.727,3.12,0.862
VYYGSYSCPYG [NKAP_Y104_R106C],2.45,1.47,4.15,3.08,2.87,4.04,2.87,6.91,1.59,4.18,4.99,8.17,2.28,0.705,0.715,0.653
WHFTFYNELRV [ACTC1_Y93_H90Y_YF],0.784,1.5,1.27,0.671,1.42,0.542,1.07,0.42,0.578,0.392,0.635,0.413,1.2,0.535,0.483,0.782
WQQQSYLDYGI [CTNNB1_Y30_S33Y],0.808,1.03,0.711,1.07,1.11,0.91,0.827,0.743,0.453,0.426,0.615,0.604,0.842,0.511,0.648,0.818
WVFNHYRWIIW [BRCA2_Y2624_YF],0.611,1.39,0.862,0.536,1.29,0.452,0.824,0.432,0.456,0.437,0.403,0.343,1.36,0.717,0.776,1.09
WVYNHYRWIIW [BRCA2_Y2624],0.521,1.11,0.841,0.597,0.937,0.499,0.702,0.415,0.431,0.301,0.461,0.375,1.14,0.509,1.18,1.29
YAGRDYSLDEF [MYOF_Y1705_G1701A],0.658,1.14,0.928,0.536,1.06,0.54,0.686,0.878,0.588,0.52,0.549,0.595,1.37,0.909,0.665,0.757
YALAEYTEVKT [ALDH1A3_Y497],0.651,0.901,0.614,0.719,1.29,1.73,1.25,0.658,1.31,0.652,0.724,0.572,0.812,5.59,4.27,0.66
YCVDCYKNFVA [FHL1_Y213],0.564,0.832,0.737,0.514,0.668,0.572,0.651,0.507,0.532,0.722,0.54,0.532,0.726,1.02,0.838,1.19
YGPPQYNIQYS [ERBB2IP_Y977],0.412,0.802,0.858,0.592,0.989,0.462,0.557,0.617,0.672,0.602,0.72,0.549,0.655,0.322,0.986,0.728
YIPFRYPKEFQ [IDS_Y234_H229Y],0.464,0.656,0.464,0.485,0.777,0.748,0.658,0.768,0.425,0.554,0.831,0.644,0.477,0.572,0.602,0.768
YIRKDYEACKA [BBS4_Y48],0.469,0.464,0.374,0.398,0.553,0.466,0.38,0.386,0.403,0.398,0.404,0.445,0.407,0.796,1.11,0.982
YPPDGYSRHYE [CTNND1_Y213],0.388,0.655,0.355,0.394,0.561,0.451,0.548,0.354,0.354,0.395,0.414,0.348,0.534,1.21,1.04,0.911
YRKNTYNVKST [SYNE2_Y575_I574T],0.351,0.465,0.351,0.296,0.415,0.334,0.361,0.398,0.327,0.316,0.346,0.344,0.393,0.46,0.715,0.79
YRRITYYNWRH [PDE6B_Y556_H557Y],0.417,0.549,0.539,0.457,0.64,0.497,0.598,0.47,0.442,0.512,0.46,0.483,0.47,0.547,0.562,0.742
YSGDCYRIQGR [DDR2_Y741_Y740C],0.468,0.83,0.552,0.514,0.818,0.483,0.715,0.374,0.49,1.25,0.564,0.475,0.735,0.615,0.506,0.798
YSIDYYRVGGH [NTRK2_Y707_T704I],1.52,0.916,0.494,0.86,1.65,12.5,9.07,2.15,0.514,8.42,1.78,1.31,6.54,1.44,0.753,0.832
YSTDYYRVGGH [NTRK2_Y707],5.71,0.732,1.03,3.5,2.31,14.2,11.1,2.22,0.44,9.44,2.55,1.68,8.96,0.691,0.922,0.787
YVKEPYIQSRF [HIPK4_Y175],0.406,0.77,0.457,0.465,0.628,0.491,0.528,0.329,0.411,0.53,0.416,0.469,0.507,0.769,0.721,1.11

# Source: the supplement of paper PMC10065799, “High-throughput profiling of sequence recognition by tyrosine kinases and SH2 domains using bacterial peptide display” (eLife, 2023)
